Laboratory results: PMC6494689

Key:
[1] = molecular target: BbRAG1L NBD* domain (purified NBD* protein) (Branchiostoma belcheri); experiment: SEC-MALS
[2] = molecular target: MBP-tagged core BbRAG1L (cBbRAG1L; aa 468-1136) (Branchiostoma belcheri); experiment: SEC-MALS

Substance | stoichiometry N [1] | stoichiometry N (BbRAG2L per cBbRAG1L (2:2)) [2]
BbRAG1L NBD* domain (purified NBD* protein) (domain or fragment) | 2 | –
MBP-tagged full length BbRAG2L (natural protein) | – | 1
